# Experimental data: the supplement of paper PMC7877785
# ± gives the uncertainty stated by the source.
# Experiment: self-splicing fitness, log relative to wild type (ln ratio); higher = more splicing; Tetrahymena group I intron in knt gene, E. coli kanamycin selection, DiMSum; sequences stand for … in CUCUCU…GGAGGGAAAAGUUAUCAGGCAUGCACCUGGUAGCUAGUCUUUAAACCAAUAGAUUGCAUCGGUUUAAAAGGCAAGACCGUCAAAUUGCGGGAAAGGGGUCAACAGCCGUUCAGUACCAAGUCUCAGGGGAAACUUUGAGAUGGCCUUGCAAAGGGUAUGGUAAUAAGCUGACGGACAUGGUCCUAACCACGCAGCCAAGUCCUAAGUCAACAGAUCUUCUGUUGAUAUGGAUGCAGUUCACAGACUAAAUGUCGGUCGGGGAAGAUGUAUUCUUCUCAUAAGAUAUAGUCGGACCUCUCCUUAAUGGGAGCUAGCGGAUGAAGUGAUGCAACACUGGAGCCGCUGGGAACUAAUUUGUAUGCGAAAGUAUAUUGAUUAGUUUUGGAGUACUCGUGGUCG
# Outline: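 Pooled colonies went to amplicon sequencing on an Illumina HiSeq 2500 after six replicate transformations. The plates were LB agar with 100 μg/mL carbenicillin, 50 μM IPTG and 0.2% rhamnose, with or without 25 μg/mL kanamycin, incubated overnight at 37°C or 30°C. The E. coli BL21(DE3) library had all eight P1ex-region intron nucleotides randomised, the intron placed in the knt kanamycin-resistance gene on pET-22b(+). DiMSum fitness is the error-weighted combination of replicate fold changes, kanamycin against none, normalised to wild type.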
Sequence,self-splicing fitness (ln) (30 °C),self-splicing fitness (ln) (37 °C)
ACGCAGCAAUAUUACGCUCA,-0.563 ± 0.063,0.124 ± 0.088
CUUUAGCAAUAUUACGAUAU,-3.93 ± 0.35,-3.25 ± 0.38
ACUAAGCAAUAUUACGAAAG,-1.76 ± 0.14,-1.55 ± 0.16
CAGCAGCAAUAUUACGGCCA,-0.605 ± 0.091,-0.22 ± 0.11
ACGCAGCAAUAUUACGAGUG,-2.14 ± 0.052,-1.32 ± 0.062
UCUAAGCAAUAUUACGCCCU,-2.09 ± 0.24,-1.78 ± 0.25
GUCGAGCAAUAUUACGCGAU,-3.36 ± 0.27,
GCCAAGCAAUAUUACGUAUA,-2 ± 0.23,-0.632 ± 0.15
AACGAGCAAUAUUACGUUCG,-3 ± 0.48,-1.19 ± 0.2
UUCAAGCAAUAUUACGCAAG,-2.1 ± 0.2,-0.676 ± 0.17
UCACAGCAAUAUUACGGUGA,-3.99 ± 0.33,-2.77 ± 0.21
AUCAAGCAAUAUUACGUGCG,-1.03 ± 0.079,0.202 ± 0.099
AAACAGCAAUAUUACGGCGU,-0.571 ± 0.053,-0.336 ± 0.063
AGUCAGCAAUAUUACGCAGA,-1.64 ± 0.2,-1.45 ± 0.22
GGAGAGCAAUAUUACGGUGA,-2.27 ± 0.2,-1.46 ± 0.21
UUGCAGCAAUAUUACGUCAG,-0.419 ± 0.11,0.42 ± 0.14
GGGCAGCAAUAUUACGUGAA,-0.864 ± 0.079,-0.507 ± 0.083
GUGGAGCAAUAUUACGGCGC,-1.42 ± 0.27,-0.0496 ± 0.26
GACUAGCAAUAUUACGAAUU,-1.35 ± 0.092,-0.277 ± 0.11

Sequence,self-splicing fitness (ln) (30 °C),self-splicing fitness (ln) (37 °C)
GACCAGCAAUAUUACGGAUG,-0.62 ± 0.056,0.157 ± 0.077
AAAGAGCAAUAUUACGCAAG,-3.4 ± 0.19,-3.51 ± 0.36
UAGGAGCAAUAUUACGUACC,-2.66 ± 0.32,-2.69 ± 0.43
CUACAGCAAUAUUACGCCGA,-2.29 ± 0.18,-3.15 ± 0.43
GAAGAGCAAUAUUACGAAGG,-2.75 ± 0.17,-3.62 ± 0.46
CCCCAGCAAUAUUACGUCAU,-3.36 ± 0.1,-3.02 ± 0.15
CCUCAGCAAUAUUACGAGUU,-2.31 ± 0.1,-1.11 ± 0.093
CGUGAGCAAUAUUACGGCGU,-2.44 ± 0.18,-1.32 ± 0.17
CGAUAGCAAUAUUACGGUCG,-4.36 ± 0.29,-3.39 ± 0.35
GAACAGCAAUAUUACGAGGC,-3.07 ± 0.18,-2.03 ± 0.14
CGGCAGCAAUAUUACGUUCC,-2.59 ± 0.14,-1.77 ± 0.21
CUCCAGCAAUAUUACGCUAG,-3.91 ± 0.17,-2.7 ± 0.2
GCUGAGCAAUAUUACGAGUG,-0.948 ± 0.14,-1.2 ± 0.17
GGUGAGCAAUAUUACGGAUC,-0.748 ± 0.076,0.263 ± 0.11
CAAGAGCAAUAUUACGGCAC,-4.28 ± 0.24,-2.53 ± 0.18
CGAAAGCAAUAUUACGUCCC,-0.693 ± 0.14,-0.0504 ± 0.23
AGGAAGCAAUAUUACGGGAA,-2.67 ± 0.25,-2.08 ± 0.26
CCUGAGCAAUAUUACGUUUA,-3.15 ± 0.15,-1.57 ± 0.17
CUAGAGCAAUAUUACGGGGU,,-2.6 ± 0.3
